Tested on: wtTNFβ, TNF-α promoter from −991 to 1
Assay: Luciferase reporter assay, wild-type TNF-α promoter, WTK-1
Format: cell-based
Settings: WTK-1 cells; normalized to β-gal; LITAF overexpressed alone without LPS stimulation
Source text: FIG. 10 is a graphical representation of the analysis of LITAF function in luciferase reporter constructs. The series of TNF-α promoter DNA fragments were subcloned into the pGL3 basic vector (Pharmacia), a promoterless and enhancerless luciferase reporter gene. One construct, named wtTNFβ, contained TNF-α promoter from −991 to 1. Another one, mtTNFβ1, was a mutant inserted with the promoter from −991 to 1, but lacking the LITAF binding site. WTK-1 cells (grown to 85% confluence) in a 6-well plate at 1.2×10^5 cells/well were co-transfected with 1 μg DNAs including pCMV-LITAF recombinant vector, pVMVβ-gal and pGL3 basic as control by Fugene 6 (Roche Molecular Biochemicals) for 3 hrs, washed with PBS twice, then individually stimulated with LPS or Chariot/peptide complex of 100 ng/ml peptide B (peptide fragment of LITAF representing aa 152-228) or HA as control for 3 hrs, washed with PBS, incubated at 37° C., 5% CO2, o/n. The β-galactosidase gene was included in all transfections. The cells were harvested and lysed approximately 12 hrs after transfection. The promoter activity from each lysate sample was measured using the luciferase reporter assay system (Promega) and normalized to β-gal expression in the same sample, as described in the methods section below.
The activation of TNF-α gene expression by LITAF was investigated. […]

TNF-α promoter activity (luciferase), wild-type promoter/reporter plasmid: 2.5 fold
B1: exogenous LITAF: full-length human LITAF (SEQ ID NO. 1) overexpressed from the pCMV-LITAF recombinant vector (protein, listed as Homo sapiens)
chain: MSVPGPYQAATGPSSAPSAPPSYEETVAVNSYYPTPPAPMPGPTTGLVTGPDGKGMNPPSYYTQPAPIPNNNPITVQTVYVQHPITFLDRPIQMCCPSCNKMIVSQLSYNAGALTWLSCGSLCLLGVHSGLLLHPLLRGCPAGRGPLLSQLQSSPGHLQAFVGLSQTWREPGAAGSPFHLSSSFTPGGGSALVVSPLQGAHLHVFFWGEYVAKLTNLQTPEIAAWSRA
